According to article PMC9146136 (2022):

Target: anti-mTNFα 3B11 VNAR (soluble, purified)
Assay: BLI

koff: 2.69e-05 s⁻¹
B1: extracellular domain of mTNFα (mTNFα ECD, 77-235aa) (domain or fragment)
chain: TLTLRSSSQNSSDKPVAHVVANHQVEEQLEWLSQRANALLANGMDLKDNQLVVPADGLYLVYSQVLFKGQGCPDYVLLTHTVSRFAISYQEKVNLLSAVKSPCPKDTPEGAELKPWYEPIYLGGVFQLEKGDQLSAEVNLPKYLDFAESGQVYFGVIAL
modifications: biotin (biotin-NHS labeling reaction) in the BLI assay only
